US20050085629A1, “Utilization of FPRL1 as a functional receptor by serum amyloid A (SAA)” (priority 1999, published 2005)

Tests used:
[1] = target: T1, FPRL1 (Homo sapiens, UniProt P25090); experiment: Calcium mobilization (Fura-2) in FPRL1 transfected HEK 293 cells (FPRL1/293 cells); format: cell-based
T1 sequence (P25090 1-351): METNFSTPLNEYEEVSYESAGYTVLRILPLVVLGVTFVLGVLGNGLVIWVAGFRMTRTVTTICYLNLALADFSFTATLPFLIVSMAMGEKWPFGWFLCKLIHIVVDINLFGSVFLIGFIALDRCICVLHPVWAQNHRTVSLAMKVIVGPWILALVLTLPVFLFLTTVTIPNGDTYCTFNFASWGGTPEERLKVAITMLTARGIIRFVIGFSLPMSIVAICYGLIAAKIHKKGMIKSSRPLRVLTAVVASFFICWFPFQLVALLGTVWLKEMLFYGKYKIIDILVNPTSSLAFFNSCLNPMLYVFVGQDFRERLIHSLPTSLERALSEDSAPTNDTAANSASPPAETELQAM

[2] = target: T1, FPRL1; experiment: Chemotaxis of FPRL1/293 cells (48-well microchemotaxis chamber); format: cell-based; conditions: for agonist activity on FPRL1: concluded from chemotaxis experiments
[3] = target: T1, FPRL1; experiment: 125I-SAA ligand binding to FPRL1/293 cells
Experimental: (§1) rhSAA (20: g) was radio-iodinated on tyrosine and lysine residues with the chloramine T method and the specific activity of the labeled SAA was 5.8 mCi/mg (courtesy of J. Dobbs, SAIC Frederick, NCI-FCRDC, Frederick, Md.). A constant concentration of 16 nM ^125I-SAA was incubated for 20 min at 37° C. with human monocytes or 293 cells transfected with chemoattractant receptor cDNAs (1.5-2×10^6/sample, in 200: l RPMI1640, 1% BSA, 0.05% NaN3) in the presence of increasing concentrations of unlabeled SAA. After incubation, the cells were washed once with ice-cold PBS then were layered onto a 10% sucrose/PBS cushion in Eppendorf tubes. The cells were centrifuged at 10,000 g for 1 min and the tips of the tubes containing cell pellets were cut and measured for radioactivity in a γ-counter. The binding data were analyzed and plotted with a computer-aided program LIGAND (P. Munson, Division of Computer Research and Technology, NIH, Bethesda, Md.). The level of specific binding was determined by subtraction of non-specific binding (cpm on cells in the presence of 1: M unlabeled SAA) from the total binding (cpm on cells in the absence of unlabeled SAA). Experiments were performed at least 5 times which yielded similar results.

[4] = test system: human monocytes; experiment: Cross-desensitization of Ca2+ mobilization in human monocytes (and neutrophils); format: cell-based
[5] = test system: human monocytes; experiment: 125I-SAA ligand binding to human monocytes
Excerpt: GLPEKY. (SEQ. ID. No. 1). This rhSAA corresponds to SAA-1α, one of the major SAA isoforms in the serum, except for the addition of a methionine at the NH2 terminus as well as the substitution of aspartic acid for asparagine at position 60, which appears in the SAA2 isoform (reviewed in ref. Steinkasserer et al., Biochem. J., 268:187-193 (1990)). rhSAA at concentrations used in the study was negative for endotoxin as assessed by Limulus amebocyte lysate assays (sensitivity: 0.06 IU/ml. Bio Whittaker, Walkersville, Md.). High density lipoprotein (HDL) was purchased from Sigma (St. Louis, Mo.). […]
rhSAA (20: g) was radio-iodinated on tyrosine and lysine residues with the chloramine T method and the specific activity of the labeled SAA was 5.8 mCi/mg (courtesy of J. Dobbs, SAIC Frederick, NCI-FCRDC, Frederick, Md.). […] The cells were centrifuged at 10,000 g for 1 min and the tips of the tubes containing cell pellets were cut and measured for radioactivity in a γ-counter. The binding data were analyzed and plotted with a computer-aided program LIGAND (P. Munson, Division of Computer Research and Technology, NIH, Bethesda, Md.). The level of specific binding was determined by subtraction of non-specific binding (cpm on cells in the presence of 1: M unlabeled SAA) from the total binding (cpm on cells in the absence of unlabeled SAA). […]

[6] = target: human peripheral blood CD3+ T lymphocytes; experiment: 125I-SAA binding to human peripheral blood CD3+ T lymphocytes
[7] = test system: neutrophils; experiment: 125I-SAA ligand binding to neutrophils; design: species or system human
[8] = target: T2, FPR (Homo sapiens, UniProt P21462); experiment: Radiolabeled SAA binding to cells transfected to express FPR; design: expressed in transfected cells; conditions: cells transfected to express the receptor
T2 sequence (P21462 1-350): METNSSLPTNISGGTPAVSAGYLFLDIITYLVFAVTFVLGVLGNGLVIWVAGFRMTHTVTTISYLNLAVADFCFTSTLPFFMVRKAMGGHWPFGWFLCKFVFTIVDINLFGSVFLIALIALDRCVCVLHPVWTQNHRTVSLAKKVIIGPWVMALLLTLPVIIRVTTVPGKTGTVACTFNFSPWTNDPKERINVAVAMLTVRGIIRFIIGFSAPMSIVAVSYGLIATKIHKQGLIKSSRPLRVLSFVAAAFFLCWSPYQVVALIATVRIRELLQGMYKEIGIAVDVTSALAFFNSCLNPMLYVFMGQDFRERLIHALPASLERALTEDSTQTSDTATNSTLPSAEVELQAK
Experimental: as §1

[9] = target: T2, FPR; experiment: Chemotaxis of FPR expressing ETFR cells (48-well microchemotaxis chamber); format: cell-based; design: expressed in transfected cells; host or cells: ETFR cells (rat basophil leukemia cell line), gift from Drs; H. Ali and R. Snyderman; conditions: FIG. 3B
[10] = test system: leukocyte; conditions: from Badolato et al. 1994, Xu et al. 1995, Badolato et al. 1995; cited from earlier work
[11] = target: T2, FPR; conditions: FPR expressing 293 cells, FIG. 2C
[12] = FPRL1/293 cells pretreated with toxin
[13] = FPRL1/293 cells, commercially available LXA4 (Biomol)

pertussis toxin
effect of cell pretreatment on SAA induced Ca2+ mobilization [1, 12]: inhibited
effect of cell pretreatment on SAA induced chemotaxis [2, 12]: inhibited

CCCCC[C@H](O)/C=C/C=C\C=C\C=C\[C@@H](O)[C@@H](O)CCCC(=O)O [LXA4, lipoxin A4]
inhibition of SAA binding ([3]; phagocytes or FPRL1/293 cells): nor did we observe inhibition
induction of Ca2+ flux [1, 13]: did not detect a significant induction
induction of chemotaxis [2, 13]: did not detect a significant induction

CSCC[C@H](NC=O)C(=O)N[C@@H](CC(C)C)C(=O)N[C@@H](Cc1ccccc1)C(=O)O [fMLP, N-formyl-methionyl-leucyl-phenylalanine]
competition with 125I-SAA for binding ([3]; unlabeled fMLP at high concentrations (≧10: M), FPRL1/293 cells, FIG. 4D): only partially competed
desensitization of SAA-induced Ca2+ mobilization ([4]; fMLP 10^-3 M = 1 mM, monocytes, FIG. 1C): completely desensitized
desensitization of SAA-induced Ca2+ mobilization ([4]; fMLP at 100 nM, monocytes, FIG. 1B): partial desensitizing effect
attenuation of subsequent cell response (Ca2+) to SAA ([4]; fMLP at relatively high concentrations (10: M and more), monocytes and neutrophils): able to attenuate a subsequent cell response to SAA
desensitization of Ca2+ flux response to SAA by prior fMLP ([1]; FPRL1/293 cells, sequential stimulation, fMLP at 100 fold excess of SAA): only partially desensitized
competition with 125I-SAA for binding ([5]; unlabeled fMLP at high concentrations (≧10: M), FIG. 4C): only partially competed
cell migration in response to stimulant ([2]; FPRL1/293 cells, wide range of concentrations, FIG. 3A): failed to migrate
agonist activity on FPRL1 [2]: partial agonist

B1: ^125I-SAA: rhSAA radio-iodinated on tyrosine and lysine residues with the chloramine T method (protein)
chain: MRSFFSFLGEAFDGARDMWRAYSDMREANYIGSDKYFHARGNYDAAKRGPGGVWAAEAISNARENIQRFFGRGAEDSLADQAANEWGRSGKDPNHFRPAGLPEKY
Kd [6]: 300 nM
binding sites/cell ([3]; FPRL1/293 cells, FIG. 4A): 42000 binding sites/cell
Kd [7]: 45 nM
binding to FPR receptor [8]: not the FPR receptor
specific binding ([5]; FIG. 4B): specifically bound

B2: serum amyloid A (protein, listed as Homo Sapiens)
chain: B1 chain
modifications: N-terminal methionine
notes: Recombinant human SAA from Pepro Tech; corresponds to SAA-1α with added NH2-terminal methionine and aspartic acid for asparagine at position 60
cell migration in response to stimulant [9]: did not migrate
desensitization of Ca2+ flux induced by chemokines (MCP-1, RANTES, MCP-3, MIP-1, IL-8, SDF-1) ([4]; SAA at 1: M, monocytes or neutrophils): failked to desensitize
attenuation of cell response (Ca2+) to fMLP ([4]; fMLP used at 100 nM, monocytes, FIG. 1A): did not attenuate the cell response
optimal concentrations to induce leukocyte migration, adhesion and tissue infiltration [10]: 0.8-4 : M
desensitization of Ca2+ flux response to fMLP by prior SAA ([1]; FPRL1/293 cells, sequential stimulation, 100 fold excess of fMLP): able to desensitize the cell response to a 100 fold excess of fMLP
EC50 ([1]; FPRL1 transfected cells (FPRL1/293 cells), FIG. 2B, read-out: EC50 for Ca2+ mobilization): 250 nM
EC50 ([2]; FPRL1/293 cells, read-out: EC50 of migratory response (chemotaxis)): 200 nM
agonist activity on FPRL1 [2]: full agonist activity
induction of Ca2+ mobilization [11]: not in FPR expressing cells
